Numbering of substitutions follows the chain as printed. Names may count otherwise.
B1: FIXa-I251S/R318Y/R338E/E410N (protein)
chain 1: YNSGKLEEFVQGNLERECMEEKCSFEEAREVFENTERTTEFWKQYVDGDQCESNPCLNGGSCKDDINSYECWCPFGFEGKNCELDVTCNIKNGRCEQFCKNSADNKVVCSCTEGYRLAENQKSCEPAVPFPCGRVSVSQTSKLTR
chain 2: VVGGEDAKPGQFPWQVVLNGKVDAFCGGSIVNEKWIVTAAHCVETGVKITVVAGEHNIEETEHTEQKRNVSRIIPHHNYNAAINKYNHDIALLELDEPLVLNSYVTPICIADKEYTNIFLKFGSGYVSGWGRVFHKGYSALVLQYLRVPLVDRATCLESTKFTIYNNMFCAGFHEGGRDSCQGDSGGPHVTEVEGTSFLTGIISWGEECAMKGKYGIYTKVSRYVNWIKNKTKLT
B2: FIXa-Y155F/K247N/N249S/R318Y/R338E/R403E/E410N (protein)
chain 1: B1 chain 1
chain 2: B1 chain 2 with K67N, N69S, S71I, R223E
B3: FIXa-A103N/N105S/K247N/N249S/R318Y/R338E/R403E/E410N (protein)
chain 1: B1 chain 1 with A103N, N105S
chain 2: B1 chain 2 with K67N, N69S, S71I, R223E
B4: FIXa-Y155F/K247N/N249S/R318Y/R338E/E410N (protein)
chain 1: B1 chain 1
chain 2: B1 chain 2 with K67N, N69S, S71I
B5: FIXa-R318Y/R338E/R403E/E410S (protein)
chain 1: B1 chain 1
chain 2: B1 chain 2 with S71I, R223E, N230S
B6: FIXa-R318Y/R338E/R403E/E410N/T412V (protein)
chain 1: B1 chain 1
chain 2: B1 chain 2 with S71I, R223E, T232V
B7: FIXa-R318Y/R338E/R403E/E410N/T412A (protein)
chain 1: B1 chain 1
chain 2: B1 chain 2 with S71I, R223E, T232A
B8: FIXa-R318Y/R338E/T412A (protein)
chain 1: B1 chain 1
chain 2: B1 chain 2 with S71I, N230E, T232A
B9: FIXa-R318Y/R338E/E410N/T412V (protein)
chain 1: B1 chain 1
chain 2: B1 chain 2 with S71I, T232V
B10: FIXa-N260S/R318Y/R338E/R403E/E410N (protein)
chain 1: B1 chain 1
chain 2: B1 chain 2 with S71I, N80S, R223E
B11: FIXa-D104N/K106S/N260S/R318Y/R338E/R403E/E410N (protein)
chain 1: B1 chain 1 with D104N, K106S
chain 2: B1 chain 2 with S71I, N80S, R223E
B12: FIXa-Y155F/N260S/R318Y/R338E/R403E/E410N (protein)
chain 1: B1 chain 1
chain 2: B1 chain 2 with S71I, N80S, R223E
B13: FIXa-R318Y/R338E/N346D/R403E/E410N (protein)
chain 1: B1 chain 1
chain 2: B1 chain 2 with S71I, N166D, R223E
B14: FIXa-R318Y/R403E/E410N (protein)
chain 1: B1 chain 1
chain 2: B1 chain 2 with S71I, E158R, R223E
B15: FIXa-Y259F/K265T/Y345T (protein)
chain 1: B1 chain 1
chain 2: B1 chain 2 with S71I, Y79F, K85T, Y138R, E158R, Y165T, N230E
B16: FIXa-Y155F/K228N/R318Y/R338E/R403E/E410N (protein)
chain 1: B1 chain 1
chain 2: B1 chain 2 with K48N, S71I, R223E
B17: FIXa-D85N/K228N/R318Y/R338E/R403E/E410N (protein)
chain 1: B1 chain 1 with D85N
chain 2: B1 chain 2 with K48N, S71I, R223E
B18: FIXa-I251S/R318Y/R338E/R403E/E410N (protein)
chain 1: B1 chain 1
chain 2: B1 chain 2 with R223E
B19: FIXa-D104N/K106S/I251S/R318Y/R338E/R403E/E410N (protein)
chain 1: B1 chain 1 with D104N, K106S
chain 2: B1 chain 2 with R223E
B20: FIXa-Y155F/I251S/R318Y/R338E/R403E/E410N (protein)
chain 1: B1 chain 1
chain 2: B1 chain 2 with R223E
B21: FIXa-K247N/N249S/R318Y/R338E/R403E/E410N (protein)
chain 1: B1 chain 1
chain 2: B1 chain 2 with K67N, N69S, S71I, R223E
B22: FIXa-D104N/K106S/K247N/N249S/R318Y/R338E/R403E/E410N (protein)
chain 1: B1 chain 1 with D104N, K106S
chain 2: B1 chain 2 with K67N, N69S, S71I, R223E
B23: FIXa-K247N/N249S/R318Y/R338E/E410N (protein)
chain 1: B1 chain 1
chain 2: B1 chain 2 with K67N, N69S, S71I
B24: FIXa-K228N/K247N/N249S/R318Y/R338E/R403E/E410N (protein)
chain 1: B1 chain 1
chain 2: B1 chain 2 with K48N, K67N, N69S, S71I, R223E
B25: FIXa-K228N/R318Y/R338E/R403E/E410N (protein)
chain 1: B1 chain 1
chain 2: B1 chain 2 with K48N, S71I, R223E
B26: FIXa-D104N/K106S/I251S/R318Y/R338E/E410N (protein)
chain 1: B1 chain 1 with D104N, K106S
chain 2: B1 chain 2
B27: FIXa-R318Y/R338E/E410S (protein)
chain 1: B1 chain 1
chain 2: B1 chain 2 with S71I, N230S
B28: FIXa-D104N/K106S/Y155F/K228N/K247N/N249S (protein)
chain 1: B1 chain 1 with D104N, K106S
chain 2: B1 chain 2 with K48N, K67N, N69S, S71I, Y138R, E158R, N230E
B29: FIXa-D104N/K106S/K228N/K247N/N249S (protein)
chain 1: B1 chain 1 with D104N, K106S
chain 2: B1 chain 2 with K48N, K67N, N69S, S71I, Y138R, E158R, N230E
B30: FIXa-Y155F/K228N/K247N/N249S (protein)
chain 1: B1 chain 1
chain 2: B1 chain 2 with K48N, K67N, N69S, S71I, Y138R, E158R, N230E
B31: FIXa-R318Y/R338E/R403E/T412A (protein)
chain 1: B1 chain 1
chain 2: B1 chain 2 with S71I, R223E, N230E, T232A
B32: FIXa Y259F/K265T/Y345T (protein)
chain 1: B1 chain 1
chain 2: B1 chain 2 with S71I, Y79F, K85T, Y138R, E158R, Y165T, N230E
B33: FIXa K228N/R318Y/R338E/R403E/E410N (protein)
chain 1: B1 chain 1
chain 2: B1 chain 2 with K48N, S71I, R223E
B34: FIXa Y155F/K228N/R318Y/R338E/R403E/E410N (protein)
chain 1: B1 chain 1
chain 2: B1 chain 2 with K48N, S71I, R223E

biological target: Factor X (FX), P00742
Sequence (P00742 whole entry, looked up): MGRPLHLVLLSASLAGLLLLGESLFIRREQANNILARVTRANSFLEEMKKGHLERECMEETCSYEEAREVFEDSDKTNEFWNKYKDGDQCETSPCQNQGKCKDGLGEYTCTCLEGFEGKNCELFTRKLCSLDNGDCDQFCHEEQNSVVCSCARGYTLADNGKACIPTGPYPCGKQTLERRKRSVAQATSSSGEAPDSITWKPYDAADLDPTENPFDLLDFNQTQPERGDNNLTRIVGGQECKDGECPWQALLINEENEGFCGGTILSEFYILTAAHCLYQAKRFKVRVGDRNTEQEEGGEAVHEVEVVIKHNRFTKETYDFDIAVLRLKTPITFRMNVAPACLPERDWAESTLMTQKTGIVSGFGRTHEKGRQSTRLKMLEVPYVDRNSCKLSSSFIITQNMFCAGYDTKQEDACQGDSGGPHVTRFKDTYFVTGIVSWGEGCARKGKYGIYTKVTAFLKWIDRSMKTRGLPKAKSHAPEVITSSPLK

| Protein | kcat/KM [M⁻¹ s⁻¹] | kcat of FX activation by FIXa in the Xase complex (FVIIIa, PC/PS vesicles, Ca2+) [s⁻¹] | KM [nM] | KM (nM); Catalytic activity of FIXa variants (KM) [nM] | kcat/KM (M^-1s^-1), FX activation by FIXa in the Xase complex [M⁻¹ s⁻¹] |
| --- | --- | --- | --- | --- | --- |
| B1 | 3.9e+08 |  |  |  |  |
| B2 | 1.9e+08 |  |  |  |  |
| B3 | 1.5e+08 |  |  |  |  |
| B4 | 3.3e+08 |  |  |  |  |
| B5 | 2.1e+08 |  |  |  |  |
| B6 | 1.9e+08 |  |  |  |  |
| B7 | 2.6e+08 |  |  |  |  |
| B8 |  | 7 |  |  |  |
| B9 | 2.4e+08 | 5.2 | 23.6 | 29.7 |  |
| B10 |  | 3.8 |  | 72.4 |  |
| B11 |  | 5.4 |  | 61.1 |  |
| B12 |  | 5.8 |  | 83.9 |  |
| B13 |  | 2.5 |  | 77.7 |  |
| B14 |  |  |  |  | 2.5e+07 |

biological target: Factor X, P00742
Sequence (P00742 whole entry, looked up): as above

| Protein | kcat of FX activation by FIXa (Xase complex with FVIIIa, PC/PS vesicles, Ca2+) [s⁻¹] | KM (Catalytic activity of FIXa variants) [nM] |
| --- | --- | --- |
| B15 | 1.7 |  |
| B16 | 9.7 |  |
| B17 | 6 |  |
| B18 | 4.8 |  |
| B19 | 5.5 |  |
| B20 | 7.2 |  |
| B1 | 6.2 |  |
| B21 | 5.8 |  |
| B2 | 6.5 |  |
| B3 | 4.1 |  |
| B22 | 5.2 |  |
| B23 | 3.8 |  |
| B4 | 4.3 |  |
| B5 | 5.8 |  |
| B24 | 6.1 |  |
| B6 | 7.9 |  |
| B7 | 8.4 |  |
| B14 |  | 88.3 |

biological target: antithrombin III (plasma purified human AT-III), in complex with unfractionated heparin

| Protein | K0.5 [µM] | K0.5-mut/K0.5-wt |
| --- | --- | --- |
| B14 | 7.07 | 366 |

biological target: plasma purified human AT-III (antithrombin III), in complex with full-length unfractionated heparin (AT-III/UFH)

| Protein | K0.5-mut/K0.5-wt (against Catalyst Biosciences WT FIXa) |
| --- | --- |
| B15 | 0.3 |
| B16 | > 517 |
| B17 | > 517 |
| B18 | > 517 |
| B19 | > 517 |
| B20 | > 517 |
| B1 | 303 |
| B21 | 418 |
| B2 | > 517 |
| B3 | 129 |
| B22 | > 517 |
| B23 | 78.3 |
| B4 | 200 |
| B5 | > 517 |
| B24 | > 517 |
| B6 | > 517 |
| B7 | > 517 |
| B8 | 396 |
| B9 | > 517 |
| B10 | > 517 |
| B11 | > 517 |
| B12 | 501 |
| B13 | > 517 |
| B25 | > 517 |
| B26 | 464 |
| B27 | 279 |
| B28 | 1.6 |
| B29 | 2.1 |
| B30 | 1.4 |
| B31 | > 517 |

biological target: plasma purified human antithrombin III (AT-III) in complex with full-length unfractionated heparin (UFH)

| Protein | K0.5-mut/K0.5-wt [fold] |
| --- | --- |
| B32 | 0.3 |
| B33 | > 517 |
| B34 | > 517 |
